The values below come from PMC8925968.

The target in series [1] is T1, PTBP1 (GST-SBP-PTBP1) (UniProt P26599-1 1-531). The series can be described thus: fluorescence polarization. (In fluorescence polarisation assays a small probe gives low polarisation when free and higher when bound to something large.)
Series [2] addresses T1, PTBP1 (GST-SBP-PTBP1). The series can be described thus: bead pull-down with RT-qPCR. Background: Real-time PCR tracks product formation cycle by cycle.

B1: Fnbp1 intron oligo (ssRNA)
RNA: CUCUCUCUCUCUCUCUC
Turning to B1, the Kd (commonly the equilibrium constant for the complex coming apart) with PTBP1 (GST-SBP-PTBP1) [1] was approximately 2 nM.

B2: Fnbp1 exon oligo (ssRNA)
RNA: CUUUCUCUCAAGCU
Consider B2, for which the Kd in the series with PTBP1 (GST-SBP-PTBP1) [1] was approximately 8 nM.

B3: Capzb exon oligo (ssRNA)
RNA: AUCUCUUGAUGCUAUCC
Molecule B3 returned a Kd in the series with PTBP1 (GST-SBP-PTBP1) [1] of approximately 6 nM.

B4: Capzb intron oligo (ssRNA)
RNA: CUCUCUGAACACUCUCU
The molecule B4 showed a Kd in the series with PTBP1 (GST-SBP-PTBP1) [1] of approximately 3 nM.

B5: Capzb intron WT transcript with adapters (ssRNA)
RNA: AGUUGUACAGUCCGACGAUGCGGUGGCCUUCUCCUGUCUCUGCCUUUGCCCACGGCUGCCAGGUUCUUGUUCGGCAUUGCUGUUGCUCUCUUGCUGUGGCUUCACCCUCUCUGAACACUCUCUGUAGUGCAGUCGUCGAGUGUCAACG
On to B5, for which the binding result with PTBP1 (GST-SBP-PTBP1) [2] is “binds”.
